Data on 1 sequence can be found in article PMC13577091.

Data set [1] addresses CcpA (Streptococcus pneumoniae D39?) (UniProt A0A0H2ZQ65). The data set can be described thus: EMSA. The note with it: Beyotime chemiluminescent EMSA kit, 5X binding buffer (composition and pH not stated), 10 ul, room temperature, 10 min then 20 min with labeled probe, 6% ….
Data set [2] addresses CcpA;HPr (Streptococcus pneumoniae D39?;Streptococcus pneumoniae D39) (UniProt A0A0H2ZQ65+A0A0H2ZP52). Put plainly: EMSA. To be noted: Beyotime chemiluminescent EMSA kit, 5X binding buffer (composition and pH not stated), 10 ul, room temperature, 10 min then 20 min with labeled probe, 6% ….

On to “TACACATCTGCTTCTAAAATATTGTTAGAAAACGATTTGACTGTCCTGATCAATTTGTCATGTTCTTATTTCATTTTACTATATTTTTGGTTCGCGGGAAGTCTACTAAGATACTTAAAGATGCAGATAGTGAAAAAAGGTGTAGACATTACCGTAAAAAAGTGATATAATCGTAAGATGTTCAATGTATAGGTGTTAATCATGAGTAGACGTTTTAA (double strand) [Pcps promoter probe]”, for which the binding result in data set [1] and in data set [2] was “binds” in each case.
